This series concerns MS2 coat protein. Description: apparent KD of MS2 coat protein; designed switch direction (-1 OFF switch, 1 ON switch): -1; higher = weaker reporter binding. The method in brief:
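Transcription of designed RNA switches on Illumina chips was done by stalled E. coli RNA polymerase. SNAP-549-labelled MS2 coat protein was then titrated in doubling steps from 0.7 or 1.5 nM to 3 µM, with steps of 0.8–1.5 h at the lowest and 10–20 min at the highest concentration. The per-design median over clusters of curve-fitted normalised fluorescence is reported as apparent KD.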

[1] abbreviates: input ligand: microRNA oligo, concentration not stated.
[2] abbreviates: Eterna round: R95, input ligand: FMN 200 uM.
The mark [3] stands for this setting: Eterna round: R95, input ligand: microRNA oligo, concentration not stated.
Where [4] appears, read: Eterna round: R95, input ligand: none.

In the case of “UUGUUAUAUGUAGGAUAUGCAUAUUAUUAUUAUGCAGAAGGACAUGAGGAUCACCCAUGUGUAUUAUUAUUAUAUAUUAUAUAU [Title] (Eterna round: R96, puzzle: Exclusion NG 1)”, under setting [1], the “apparent KD of MS2 coat protein” value amounted to 17.4 nM.

On to “UUGUUGUAUGUAGGAUAUGCAUAUUAUUAUUGUGCAGAAGGACAUGAGGAUCACCCAUGUAUAUUAUUAUUAUAUGUUAUAUAU [Title] (Eterna round: R96, puzzle: Exclusion NG 1)”, for which, under setting [1], the “apparent KD of MS2 coat protein” value was 22.1 nM.

On to “UUGUUGUAUGUAGGAUAUGCAUGUUAUUAUUAUGCAGAAGGACAUGAGGAUCACCCAUGUGUAUUAUUAUUAUAUAUUAUAUAU [Title] (Eterna round: R96, puzzle: Exclusion NG 1)”, for which the “apparent KD of MS2 coat protein” value under setting [1] stood at 15.4 nM.

Turning to “UUGUUGUAUGUAGGAUAUGCGUAUUAUUAUUGGGCAGAAGGACAUGAGGAUCACCCAUGUAUGUUGUUGUUAUAUAUUAUAUAU [Title] (Eterna round: R96, puzzle: Exclusion NG 1)”, the “apparent KD of MS2 coat protein” value runs as follows: (input ligand: FMN 200 uM) 66.4 nM; under setting [1], 35.8 nM; (input ligand: none) 47.8 nM.

On to “UUGUUGUGUGUAGGAUAUGCAUAUUAUUAUUAUGCAGAAGGACAUGAGGAUCACCCAUGUAUAUUAUUAUUAUAUAUUAUAUAU [Title] (Eterna round: R96, puzzle: Exclusion NG 1)”, for which the “apparent KD of MS2 coat protein” value under setting [1] amounted to 22.6 nM.

For “UUUAAUGGAAUUAAGAUCACAUGAGGAUCACCCAUGUAUAUAUAGGAUAUCAGCUCGUUUAGAGCUGAGAAGGAUAUAUACAUA [ExNG3/6-B2] (Eterna round: R96, puzzle: Exclusion NG 3)”, the “apparent KD of MS2 coat protein” value by setting is: (input ligand: FMN 200 uM) 90.1 nM; under setting [1], 119 nM; (input ligand: none) 356 nM.

“UUUAAUUUUUUUUUUUUACAAGCUUUUUGCUCGUCUUAUACAUGAGGAUCACCCAUGUAGAUGGGAAAUGAAUUAUC [JMF 98] (puzzle: Sensor v3, turn-off variant 2)”: the “apparent KD of MS2 coat protein” value under setting [2] was found to be 26.1 nM, the “apparent KD of MS2 coat protein” value under setting [3] turned out to be 144 nM and the “apparent KD of MS2 coat protein” value under setting [4] turned out to be 22.7 nM.

For “UUUAAUUUUUUUUUUUUACAAGCUUUUUGCUCGUCUUAUACAUGAGGAUCACCCAUGUGAAUGGAGGAUAAAUUAUC [JMF 30] (puzzle: Sensor v3, turn-off variant 2)”, the “apparent KD of MS2 coat protein” value amounted to 29.5 nM under setting [2], 33.1 nM under setting [3] and 26 nM under setting [4].

For the sequence “UUUAAUUUUUUUUUUUUACAAGCUUUUUGCUCGUCUUAUACAUGAGGAUCACCCAUGUGAGUGGAAGGUAAAUUAUC [JMF 69] (puzzle: Sensor v3, turn-off variant 2)”, the “apparent KD of MS2 coat protein” value worked out at 12.6 nM under setting [2], 18 nM under setting [3] and 11.8 nM under setting [4].

Take “UUUAAUUUUUUUUUUUUACAAGCUUUUUGCUCGUCUUAUACAUGAGGAUCACCCAUGUGGGUGAGGAGUAAAUUAUC [JMF 61] (puzzle: Sensor v3, turn-off variant 2)”: the “apparent KD of MS2 coat protein” value is 37.9 nM under setting [2], 19.1 nM under setting [3] and 66.7 nM under setting [4].

As for “UUUAGUUCAGGAUAUGUAGAUUUUAACAUGAGGAUCACCCAUGUAGAUCCUGAAUUAACUACAGAAGGGAGCAUUU [Mod of Brourd 16 - Jieux - Exclusion 5] (Eterna round: R97, puzzle: Exclusion 5)”, the “apparent KD of MS2 coat protein” value (input ligand: FMN 200 uM) stood at 33.6 nM and the “apparent KD of MS2 coat protein” value (input ligand: none) amounted to 18.4 nM.

For the sequence “UUUAGUUCAGGAUAUGUAGAUUUUAACAUGAGGAUCACCCAUGUAGAUCCUGAUCCUGCUACAGAAGGGAAAAUUU [Mat - Exclusion 5 - Eli Mod - D9] (Eterna round: R97, puzzle: Exclusion 5)”, the “apparent KD of MS2 coat protein” value is, setting by setting: (input ligand: FMN 200 uM) 24.4 nM; (input ligand: none) 25.6 nM.

As for “UUUAUAUAGUAAGGAUAUGUAUUAUUUCUAUCAACAGAAGGUACUGACAUGAGGAUCACCCAUGUUUUAGUGUGGGCAUGUAGU [JMF's solution 97] (Eterna round: R96, puzzle: Exclusion NG 1)”, the “apparent KD of MS2 coat protein” value under setting [1] was found to be 200 nM.

In the case of “UUUCAACAUGAGGAUCACCCAUGUCAGGAUAUCAUUUAGCUCAUACACUUACCAUCAUUGAGAAGGGACAUGCU [Colors] (Eterna round: R97, puzzle: Exclusion 1)”, the “apparent KD of MS2 coat protein” value runs as follows: (input ligand: FMN 200 uM) 15.7 nM; (input ligand: none) 19 nM.

For “UUUCUCGUUGUGAGGAUAUCGUUUUUGUUUUGGAUCGAGAAGGCACAUGAGGAUCACCCAUGUUUGUUGUGGUU [JR_BMOE4_Sub088] (puzzle: Brourd's mod of Exclusion 4)”, the “apparent KD of MS2 coat protein” value under setting [3] stood at 93.3 nM.

On to “UUUGGCAGAGGAUAUACAUGAGGAUCACCCAUGUAUAAGUGGGAUGCGUGCAAAUACUGUAGAAGGCUGCCUCU [Eternabot (L2) Solution 66] (Eterna round: R97, puzzle: Exclusion 3)”, for which the “apparent KD of MS2 coat protein” value came to 50.1 nM (input ligand: FMN 200 uM) and 73 nM (input ligand: none).

As to “UUUGUAUAGCAAGGAUAUGUUUAAUUAUAGUUGCCUCAUACAUGAGGAUCACCCAUGUUUUACUUACAGAAGGUGCAAUGAUUU [JR_ExcNG2_Sub035] (Eterna round: R96, puzzle: Exclusion NG 2)”, the “apparent KD of MS2 coat protein” value under setting [1] is 242 nM.

“UUUUAACAUGAGGAUCACCCAUGUGAGGAUAUCGAAAUUUAUAUUAAUAUUAAUUUAUCGAGAAGGCACAUUUU [JMF 32] (puzzle: Exclusion 1)”: the “apparent KD of MS2 coat protein” value under setting [3] amounted to 108 nM.

As for “UUUUAACAUGAGGAUCACCCAUGUGAGGAUAUCGAAAUUUAUAUUAAUAUUAUUAAUUCGAGAAGGCACAUUUU [JMF 37] (puzzle: Exclusion 1)”, the “apparent KD of MS2 coat protein” value under setting [3] stood at 126 nM.

With “UUUUAACAUGAGGAUCACCCAUGUGAGGAUAUCGAAAUUUAUAUUAAUAUUAUUAUUACGAGAAGGCACAUUUU [JMF 42] (puzzle: Exclusion 1)”, the “apparent KD of MS2 coat protein” value under setting [3] is 69.3 nM.

Regarding “UUUUAACAUGAGGAUCACCCAUGUGAGGAUAUCGAAAUUUAUAUUAAUAUUAUUUAAACGAGAAGGCACAUUUU [JMF 43] (puzzle: Exclusion 1)”, the “apparent KD of MS2 coat protein” value under setting [3] was determined as 70.4 nM.

For “UUUUAACAUGAGGAUCACCCAUGUGAGGAUAUCGAAAUUUAUAUUAAUAUUUAUAAAACGAGAAGGCACAUUUU [JMF 51] (puzzle: Exclusion 1)”, under setting [3], the “apparent KD of MS2 coat protein” value is 78.6 nM.

Turning to “UUUUAACAUGAGGAUCACCCAUGUGAGGAUAUCGAAAUUUAUAUUUAUAUUAAUUAUACGAGAAGGCACAUUUU [JMF 86] (puzzle: Exclusion 1)”, under setting [3], the “apparent KD of MS2 coat protein” value amounted to 65.5 nM.

Take “UUUUAACAUGAGGAUCACCCAUGUGAGGAUAUCGAAAUUUAUAUUUAUAUUAAUUUAUCGAGAAGGCACAUUUU [JMF 88] (puzzle: Exclusion 1)”: the “apparent KD of MS2 coat protein” value under setting [3] was 166 nM.

In the case of “UUUUACCAAGGAUAUACAUUUUUUUUAUUAUUUUCAUUAUAACAUGAGGAUCACCCAUGUAGAAGGUGGAUUUU [My Design] (puzzle: Exclusion 2)”, under setting [3], the “apparent KD of MS2 coat protein” value is 59.6 nM.

For the sequence “UUUUACGAAGGAUAUACAUUUUUUUUAUUAUUUUCAUUAUUACAUGAGGAUCACCCAUGUAGAAGGUCGAUUUU [My Design] (puzzle: Exclusion 2)”, the “apparent KD of MS2 coat protein” value under setting [3] was found to be 27.7 nM.

With “UUUUAGAGAGGAUAUAUAAUGUGAAACAUGAGGAUCACCCAUGUAAUAUUAUGGAUGUAAAUAGAAGGCUCAAUUA [Mat - Exclusion 5 - JL mod - D13] (puzzle: Exclusion 5)”, the “apparent KD of MS2 coat protein” value worked out at 28.5 nM under setting [2], 30.4 nM under setting [3] and 26.3 nM under setting [4].

For “UUUUAGUCAGGAUAUACAUUUUUUUAUUUAUUUAUAAUAUUACAUGAGGAUCACCCAUGUAGAAGGGACAUUUU [My Design] (puzzle: Exclusion 2)”, the “apparent KD of MS2 coat protein” value under setting [3] stood at 29.6 nM.

As for “UUUUCAUAUGAAGGAUAUACUUAACAUGAGGAUCACCCAUGUGGUGUUGUGAGUGAGUGAGUUUAGUAGAAGGUCAAGUAUUUU [JMF's solution 48] (Eterna round: R96, puzzle: Exclusion NG 2)”, the “apparent KD of MS2 coat protein” value (input ligand: FMN 200 uM) turned out to be 805 nM, the “apparent KD of MS2 coat protein” value under setting [1] stood at 304 nM and the “apparent KD of MS2 coat protein” value (input ligand: none) came out at 304 nM.

Turning to “UUUUCUUUUGUGAGGAUAUACUUCUUUUUUUUUUUGUAGAAGGCACAUGAGGAUCACCCAUGUUUUCUUUUCUG [JR_BME4_Sub027] (puzzle: Brourd's mod of Exclusion 4)”, the “apparent KD of MS2 coat protein” value under setting [3] was 22.1 nM.

Turning to “UUUUGGCAUGUAGGAUAUGGGUCCGAUUAGGAUUUAGAAGGACAUGAGGAUCACCCAUGUGCAUUUAAUUGGUCUUUUUUUUUU [EXclNG1-LROPPY15] (Eterna round: R96, puzzle: Exclusion NG 1)”, the “apparent KD of MS2 coat protein” value under setting [1] was 80 nM.

As for “UUUUUAUAUGAAGGAUAUACUUAACAUGAGGAUCACCCAUGUGGUGUUGUGAGUGAGUGAGUUUAGUAGAAGGUCAAUUAUUGU [JMF's solution 16] (Eterna round: R96, puzzle: Exclusion NG 2)”, the “apparent KD of MS2 coat protein” value (input ligand: FMN 200 uM) was 2260 nM, the “apparent KD of MS2 coat protein” value under setting [1] is 155 nM and the “apparent KD of MS2 coat protein” value (input ligand: none) came out at 394 nM.

“UUUUUAUUUUUUUAUUUUGACAUGAGGAUCACCCAUGUAACGAGCAGAUCUUCAUGCAAGCUUUUUGCUCGUCUUAU [Sensor v3 - Turn-off variant 1 - 41] (puzzle: Sensor v3, turn-off variant 1)”: the “apparent KD of MS2 coat protein” value came to 69.1 nM under setting [2], 15.5 nM under setting [3] and 95.6 nM under setting [4].

With “UUUUUCUGUGUGAGGAUAUACUUUGUUUGGUCGUUGUAGAAGGCACAUGAGGAUCACCCAUGUAGUUUGUUGUG [JR_BME4_Sub013] (puzzle: Brourd's mod of Exclusion 4)”, the “apparent KD of MS2 coat protein” value under setting [3] came to 23 nM.

Take “UUUUUGUGAGGAUAUCAGUAGUAAAAUAAAUAAAUUACUACUGAGAAGGCACAUGAGGAUCACCCAUGUUCCUU [Mat - Exclusion 4 - Mod of Salish - D66] (puzzle: Exclusion 4)”: the “apparent KD of MS2 coat protein” value under setting [3] was found to be 13.7 nM.
